PMC10988552

Biological target: T1, granulocyte colony stimulating factor (G-CSF) (human), P09919
T1 chain: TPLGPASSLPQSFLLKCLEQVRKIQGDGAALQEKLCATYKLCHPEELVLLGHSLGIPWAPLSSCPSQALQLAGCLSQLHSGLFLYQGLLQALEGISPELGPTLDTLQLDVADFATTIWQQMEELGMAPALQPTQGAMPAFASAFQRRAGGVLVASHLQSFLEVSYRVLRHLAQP
Assay: SEC; analytical SEC-HPLC, TSKgel G3000SWXL, mobile phase 0.1 M phosphate pH 2.5, 1 mL/min; 0.3 mg/mL G-CSF in 50 mM citric acid pH 4.25 with or without 1% (w/v) sucrose, mannitol or phenylalanine, before lyophilization; monomer 19.9 min, dimer 18.4 min
Details: remark: other sources report otherwise

B1: granulocyte colony stimulating factor (G-CSF), P09919-2 31-204 (natural protein)
chain: T1 chain
For B1, the percent dimer was 16% and the stoichiometry N was 2.
